According to the RNAGym collection of RNA variant scans (doi:10.7554/elife.80360):

B1: CPEB3 Ribozyme (parent)
chain: GGGGGCCACAGCAGAAGCGUUCACGUCGCGGCCCCUGUCAGAUUCUGGUGAAUCUGCGAAUUCUGCUGU

Variants of: B1
Test: self-cleavage, relative activity (ratio to wild type); higher = more cleavage; co-transcriptional

In order of falling self-cleavage:
1. C6A C9G  1.02
2. C6A G31U  0.986
3. C6A C9A  0.961
4. C6A G68U  0.939
5. C6A A10U  0.903
6. C6A G68C  0.889
7. G5U G68A  0.886
8. C6A G68A  0.881
9. C6A A10G  0.798
10. G5U G68U  0.793
11. C6A G31A  0.775
12. C6A G31C  0.762
13. C6A A23U  0.749
14. C6A A8C  0.733
15. C6A G50U  0.727
16. G5U G68C  0.716
17. C6A U49C  0.716
18. C6A G47A  0.712
19. C6A C45U  0.708
20. C6A  0.705
21. C6A G58U  0.695
22. C6A G48C  0.693
23. C6A G47C  0.689
24. C6A U46A  0.674
25. G5U U69G  0.671
26. C6A A10C  0.67
27. C6A C54U  0.67
28. C6A G47U  0.661
29. C6A U46C  0.657
30. C6A C66U  0.641
31. G5U U67G  0.615
32. C6A A42G  0.609
33. C6A A8U  0.607
34. C6A U46G  0.607
35. C6A A51G  0.604
36. C6A C45G  0.595
37. C6A G50C  0.594
38. C6A A52G  0.58
39. C6A A52U  0.559
40. C6A U21A  0.554
41. C6A A51U  0.545
42. C6A G11A  0.536
43. C6A A23C  0.519
44. C6A A23G  0.511
45. C6A A13G  0.506
46. C6A U49G  0.5
47. C6A A59G  0.464
48. C6A A51C  0.458
49. C6A U44C  0.455
50. C6A G65A  0.451
51. C6A G11U  0.448
52. C6A G58A  0.443
53. C6A C66G  0.44
54. C6A A40G  0.426
55. C6A U53A  0.422
56. C6A A16G  0.418
57. C6A C39U  0.416
58. C6A U44G  0.416
59. C6A C66A  0.386
60. C6A U44A  0.373
61. C6A U43G  0.367
62. C6A U38C  0.35
63. C6A C32A  0.349
64. C6A C33U  0.347
65. C6A A40U  0.346
66. G5U U36G  0.343
67. G5U G50C  0.341
68. C6A C34U  0.339
69. C6A G30A  0.338
70. C6A U62C  0.338
71. C6A U53C  0.335
72. G5U G48U  0.332
73. C6A A60G  0.326
74. G5U U46G  0.321
75. G5U U49A  0.316
76. G5U G50U  0.313
77. C6A G65U  0.305
78. C6A U21C  0.287
79. C6A U26G  0.265
80. C6A C12G  0.26
81. C6A U26A  0.256
82. G5U U46C  0.254
83. C6A U36C  0.247
84. C6A U61G  0.242
85. C6A G41A  0.241
86. G5U U46A  0.24
87. C6A C63A  0.237
88. C6A A15C  0.235
89. C6A C29U  0.234
90. G5U U49C  0.232
91. C6A C39A  0.231
92. C6A A60U  0.226
93. C6A G56C  0.225
94. C6A A42C  0.221
95. C6A C57G  0.22
96. C6A C29A  0.213
97. C6A U20C  0.204
98. G5U U64C  0.195
99. C6A U53G  0.195
100. G5U U64G  0.194
101. G5U U44C  0.192
102. G5U G65A  0.187
103. C6A C57A  0.182
104. C6A U21G  0.179
105. C6A A40C  0.177
106. G5U U38C  0.174
107. C6A A60C  0.17
108. C6A C57U  0.168
109. C6A C18A  0.167
110. C6A C22A  0.165
111. C6A G28U  0.163
112. C6A C24A  0.162
113. G5U U43G  0.161
114. C6A C12A  0.16
115. C6A A16U  0.159
116. C6A C27U  0.159
117. G5U U21A  0.158
118. C6A G30U  0.157
119. C6A G65C  0.157
120. C6A G28C  0.155
121. C6A C27A  0.154
122. G5U U53G  0.152
123. C6A U61C  0.15
124. C6A G37A  0.149
125. C6A C32G  0.147
126. C6A C18U  0.146
127. C6A C18G  0.145
128. C6A C7A  0.143
129. C6A G37U  0.142
130. C6A U55C  0.142
131. C6A G28A  0.138
132. C6A G25A  0.136
133. C6A G25C  0.133
134. G5U U26A  0.132
135. C6A G14A  0.128
136. G5U U44A  0.125
137. G5U U62A  0.123
138. C6A C32U  0.123
139. C6A C27G  0.122
140. C6A G37C  0.122
141. G5U U21C  0.119
142. C6A G17U  0.119
143. C6A U38G  0.117
144. C6A G14U  0.116
145. C6A G17C  0.115
146. C6A C35A  0.114
147. G5U U64A  0.109
148. G5U U61A  0.108
149. C6A C33G  0.108
150. C6A G19C  0.107
151. C6A G19A  0.105
152. G5U U26G  0.103
153. C6A G14C  0.101
154. C6A G25U  0.1
155. G5U U20C  0.0958
156. G5U G65U  0.0885
157. G5U U55A  0.0876
158. G5U U44G  0.0852
159. C6A C22U  0.0847
160. C6A C24G  0.0842
161. C6A A16C  0.0824
162. G5U U55G  0.0798
163. G5U U20G  0.0745
164. G5U U61C  0.0722
165. G5U U36A  0.0704
166. C6A U20A  0.0587
167. G5U U20A  0.0505
